Experimental data reported in patent US20080015165A1, “NOVEL POLYPEPTIDE” (KYOWA HAKKO KOGYO CO., LTD., priority 1998, published 2008).

Assays:
[1] = In vitro α1,3-fucosyltransferase activity, COS-1 cell lysate, pyridylaminated substrate, HPLC; assay type: biochemical; details: activity of human Fuc-TVI for α2,3-sialylLNnT taken as 100; 25 μM substrate, 2 hours at 37° C.; normalized to transcript amount
[2] = as above; assay type: biochemical; details: activity of human Fuc-TVI for α2,3-sialylLNnT taken as 100; 25 μM substrate, 2 hours at 37° C.; normalized to transcript amount; remark: listed apart in the source
Experimental: Each α1,3-fucosyltransferase expression plasmid (15 μg) was introduced into 1×10^7 COS-1 cells.
This introduction was performed by electroporation method using a gene pulser (manufactured by Bio-Rad) according to the Bio-Rad's instructional manual attached thereto. At this time, 1 μg of a luciferase expression vector, which was constructed by inserting β-actin promoter into a Hind III site of a vector pSVOA/L [Experimental Medicine, 7, 96, (1989)] was co-introduced as an index of gene transfer efficiency.
After the gene introduction, COS-1 cells were dispensed into three dishes for cell culture with a diameter of 15 cm and then cultured for 48 hours.
The cells in the remaining two dishes were collected, suspended in a solution (20 mM HEPES (pH 7.4), 2% TrironX-100), then ultrasonicated for a short time period, thereby preparing cell lysate. The protein concentration of the cell lysate was measured using a micro BCA protein assay reagent kit (manufactured by PIERCE).
The enzymatic activities of luciferase and α1,3-fucosyltransferase were measured using the cell lysate. […]
Each of the substrates was allowed to react in assay solution with or without GDP-Fuc (sugar donator), then analyzed with HPLC. […]
The products were detected using a fluorescent spectrum photometer FP-920 (JASCO Corporation) at excitation wavelength of 320 nm and emission wavelength of 400 nm. […]

[3] = Enzyme activity for a poly-N-acetyllactosamine sugar chain, Namalwa cell extract, HPLC; assay type: biochemical
Text: Using a poly-N-acetyllactosamine sugar chain, it was examined that to which GlcNAc in the sugar chains, human Fuc-TIX and 5 types of human α1,3-fucosyltransferase (Fuc-TIII, Fuc-TIV, Fuc-TV, Fuc-TVI, and Fuc-TVII) that had been cloned so far transferred fucose.
Control plasmid (pAMo) and the human Fuc-TIX expression plasmid pAMo-FT9 were introduced into Namalwa cells according to the method shown in Example 1 (3), thereby obtaining stable transformants.
Namalwa cells expressing each of the other 5 types of human α1,3-fucosyltransferases (Fuc-TIII, Fuc-TIV, Fuc-TV, Fuc-TVI, and Fuc-TVII) were obtained according to the previous report (Glycoconjugate J., 13, 802-812, Biochem. Biophys. Res. Commun., 237, 131-137, 1997).
The resultant transformants (about 1×10^7) were collected in microtubes (1.5 ml, manufactured by Eppendolf), followed by centrifugation at 550×g for 7 minutes to collect the cells.
The collected cells were washed with 0.9 ml of PBS. The washed cells were suspended in 100 μl of a solution which consisted of 20 mM HEPES (pH 7.2) and 1% TrironX-100, then allowed to stand at 4° C. for 10 minutes. Subsequently the cells were disrupted using a ultrasonicator (Bioruptor; manufactured by COSMO BIO CO., LTD.)
After disruption of the cells, each supernatant was obtained by centrifugation at 550×g for 7 minutes and used as an enzyme sample. A poly-N-acetyllactosamine sugar chain (Galβ1-4GlcNAcβ1-3Galβ1-4GlcNAcβ1-3Galβ1-4GlcNAc) consisting of 6 sugars was fluorescently labeled with 2-aminobenzamide to make a sugar chain (Galβ1-4GlcNAcβ1-3Galβ1-4GlcNAcβ1-3Galβ1-4GlcNAc-2AB: abbreviated as S in FIGS. 13 and 15, and table 3), which was used as a substrate
Florescent labeling was performed using a Signal™ 2-AB glycan labeling kit (manufactured by Oxford GlycoScience). A poly-N-acetyllactosamine sugar chain (Galβ1-4GlcNAcβ1-3Galβ1-4GlcNAcβ1-3Galβ1-4GlcNAc) was prepared according to WO98/03524.
(§1) Samples were allowed to react in 20 μl of an assay solution [50 mM cacodylate (pH 6.8), 5 mM ATP, 10 mM L-fucose, 75 μM […] (manufactured by SIGMA), 25 mM MnCl2, 15 μM fluorescently labeled sugar chain substrate, 6 μl of the cell lysate above] at 37° C. for 2 hours, followed by treatment at 100° C. for 3 minutes to stop the reaction. Next 200 μl of water was added to the samples, and the supernatant was obtained by centrifugation at 10,000×g for 5 minutes. Using an aliquot of the supernatant (10 μl), products were analyzed by HPLC under the following conditions.
(§2) HPLC: • Column—TSK-gel ODS-80TsQA column (4.6×250 mm; TOSOH CORPORATION) • Eluate—0.02 M ammonium acetate (pH 4.0) containing 7% methanol • Elution temperature—50° C. • Flow rate—1.0 ml/min. • Detection—Fluorescence spectrum photometer FB-920 (manufactured by JASCO Corporation) (excitation wavelength: 330 nm, radiation wavelength: 420 nm)

[4] = Enzyme activity for monofucosylpoly-N-acetyllactosamine sugar chain P2, Namalwa cell extract, HPLC; assay type: biochemical; details: relative activity with the activity for P2 assumed to be 1
Experimental: as §1, §2

Namalwa cells = experiment: Indirect fluorescent antibody staining of Namalwa cells expressing human Fuc-TIV or Fuc-TIX (VIM-2 and Le^x sugar chains); assay type: cell-based; details: compared to Namalwa cells transfected with pAMo
Experimental: Using an anti-VIM-2 sugar chain antibody (anti-CDw65 antibody, manufactured by Serotec) and anti-Le^x sugar chain antibodies [73-30 (manufactured by […] CORPORATION) and anti-CD15 antibody (C3D-1, manufactured by Dako)], indirect fluorescent antibody staining was performed for Namalwa cells expressing human Fuc-TIV or human Fuc-TIX, and for Namalwa cells transfected with the control vector pAMo, which were constructed in Example 9. The VIM-2 sugar chain is a sugar chain having the structure consisting of Galβ1-4GlcNAcβ1-3Galβ1-4(Fucα1-3)GlcNAc on non-reduced terminal of a sugar chain.
Indirect fluorescent antibody staining was performed according to the method described in Example 1 (3). Anti-VIM-2 sugar chain antibodies, 73-30 and C3D-1 were used after dilution at 1:50, 1:100, and 1:50.

[5] = relative activity with the activity for P2 assumed to be 1
[6] = substrate S, relative value, total of products P1, P2 and P3 by each enzyme = 100%

B1: Mouse Fuc-TIX: polypeptide of 359 amino acids (SEQ ID NO:1) encoded by mouse Fuc-TIX cDNA; novel α1,3-fucosyltransferase (protein)
chain: MTSTSKGILRPFLIVCIILGCFMACLLIYIKPTNSWVFSPMESASSVLKMKNFFSTKTDYFNETTILVWVWPFGQTFDLTSCQAMFNIQGCHLTTDRSLYNKSHAVLIHHRDISWDLTNLPQQARPPFQKWIWMNLESPTHTPQKSGIEHLFNLTLTYRRDSDIQVPYGFLTVSTNPFVFEVPSKEKLVCWVVSNWNPEHARVKYYNELSKSIEIHTYGQAFGEYVNDKNLIPTISTCKFYLSFENSIHKDYITEKLYNAFLAGSVPVVLGPSRENYENYIPADSFIHVEDFNSPSELAKYLKEVDKNNKLYLSYFNWRKDFTVNLPRFWESHACLACDHVKRHQEYKSVGNLEKWFWN
modifications: Mouse
notes: novel α1,3-fucosyltransferase
- Relative activity of α1,3-fucosyltransferases for substrate LNT [1]: 0
- Relative activity of α1,3-fucosyltransferases for substrate α2,3-sialyl LNnT [2]: 0

B2: Fuc-TIV: known human α1,3-fucosyltransferase, previously cloned, expressed in Namalwa cells (protein, UniProt P22083 1-530, looked up)
Alpha-(1,3)-fucosyltransferase …: MRRLWGAARKPSGAGWEKEWAEAPQEAPGAWSGRLGPGRSGRKGRAVPGWASWPAHLALAARPARHLGGAGQGPRPLHSGTAPFHSRASGERQRRLEPQLQHESRCRSSTPADAWRAEAALPVRAMGAPWGSPTAAAGGRRGWRRGRGLPWTVCVLAAAGLTCTALITYACWGQLPPLPWASPTPSRPVGVLLWWEPFGGRDSAPRPPPDCRLRFNISGCRLLTDRASYGEAQAVLFHHRDLVKGPPDWPPPWGIQAHTAEEVDLRVLDYEEAAAAAEALATSSPRPPGQRWVWMNFESPSHSPGLRSLASNLFNWTLSYRADSDVFVPYGYLYPRSHPGDPPSGLAPPLSRKQGLVAWVVSHWDERQARVRYYHQLSQHVTVDVFGRGGPGQPVPEIGLLHTVARYKFYLAFENSQHLDYITEKLWRNALLAGAVPVVLGPDRANYERFVPRGAFIHVDDFPSASSLASYLLFLDRNPAVYRRYFHWRRSYAVHITSFWDEPWCRVCQAVQRAGDRPKSIRNLASWFER
- Enzymatic activity, substrate S, product P1 [3, 5]: 1.6
- Enzymatic activity, substrate S, product P2 [3, 5]: 4.1
- Enzymatic activity, substrate S, product P3 [3, 5]: 0.5
- Production (%) P1 [3, 6]: 22.2%
- Production (%) P2 [3, 6]: 72.0%
- Production (%) P3 [3, 6]: 5.8%
- Enzymatic activity, substrate P2, product P3 [4]: 1.0
- reactivity against the anti-VIM-2 sugar chain antibody (Namalwa cells): significant increase
